Measured values reported in PMC3908897.

How the values were obtained:
Test in all cases: purified protein
Settings in all cases: 50 mM Tris pH 8.0, 0.1 mM MnCl2, 25°C
purified protein [1] = substrate: O=C(O)CCC(=O)C1=CC=C[C@@H](O)[C@@H]1C(=O)O; format: biochemical, Escherichia coli
purified protein [2] = substrate: O=C(O)CCC(=O)C1=CC=C[C@@H](O)[C@@H]1C(=O)O; format: biochemical, Thermosynechococcus vestitus
purified protein [3] = substrate: O=C(O)CCC(=O)C1=CC=C[C@@H](O)[C@@H]1C(=O)O; format: biochemical, Thermobifida fusca

Row | Protein | Km (purified protein [3]) [µM] | kcat (purified protein [3]) [s⁻¹] | kcat/Km (purified protein [3]) [M⁻¹ s⁻¹] | further results
1 | E. coli OSBS (Escherichia coli K-12; A107N) (protein) MRSAQVYRWQIPMDAGVVLRDRRLKTRDGLYVCLREGEREGWGEISPLPGFSQETWEEAQSVLLAWVNNWLAGDCELPQMPSVAFGVSCALAELTDTLPQAANYRANPLCNGDPDDLILKLADMPGEKVAKVKVGLYEAVRDGMVVNLLLEAIPDLHLRLDANRAWTPLKGQQFAKYVNPDYRDRIAFLEEPCKTRDDSRAFARETGIAIAWDESLREPDFAFVAEEGVRAVVIKPTLTGSLEKVREQVQAAHALGLTAVISSSIESSLGLTQLARIAAWLTPDTIPGLDTLDLMQAQQVRRWPGSTLPVVEVDALERLL |  |  |  | Km (purified protein [1]): 109 ± 17 µM; kcat (purified protein [1]): 32 ± 1.9 s⁻¹; kcat/Km (purified protein [1]): 290000 M⁻¹ s⁻¹
2 | E. coli OSBS (Escherichia coli K-12; R20S) (protein) MRSAQVYRWQIPMDAGVVLSDRRLKTRDGLYVCLREGEREGWGEISPLPGFSQETWEEAQSVLLAWVNNWLAGDCELPQMPSVAFGVSCALAELTDTLPQAANYRAAPLCNGDPDDLILKLADMPGEKVAKVKVGLYEAVRDGMVVNLLLEAIPDLHLRLDANRAWTPLKGQQFAKYVNPDYRDRIAFLEEPCKTRDDSRAFARETGIAIAWDESLREPDFAFVAEEGVRAVVIKPTLTGSLEKVREQVQAAHALGLTAVISSSIESSLGLTQLARIAAWLTPDTIPGLDTLDLMQAQQVRRWPGSTLPVVEVDALERLL |  |  |  | Km (purified protein [1]): 22 ± 0.1 µM; kcat (purified protein [1]): 0.5 ± 0.1 s⁻¹; kcat/Km (purified protein [1]): 23000 M⁻¹ s⁻¹
3 | E. coli OSBS (Escherichia coli K-12; L109T) (protein) MRSAQVYRWQIPMDAGVVLRDRRLKTRDGLYVCLREGEREGWGEISPLPGFSQETWEEAQSVLLAWVNNWLAGDCELPQMPSVAFGVSCALAELTDTLPQAANYRAAPTCNGDPDDLILKLADMPGEKVAKVKVGLYEAVRDGMVVNLLLEAIPDLHLRLDANRAWTPLKGQQFAKYVNPDYRDRIAFLEEPCKTRDDSRAFARETGIAIAWDESLREPDFAFVAEEGVRAVVIKPTLTGSLEKVREQVQAAHALGLTAVISSSIESSLGLTQLARIAAWLTPDTIPGLDTLDLMQAQQVRRWPGSTLPVVEVDALERLL |  |  |  | Km (purified protein [1]): 83 ± 17 µM; kcat (purified protein [1]): 3.6 ± 0.3 s⁻¹; kcat/Km (purified protein [1]): 43000 M⁻¹ s⁻¹
4 | T. elongatus OSBS (Thermosynechococcus vestitus BP-1) (protein) MRWQWRIYEEPLQEPLTTAQGVWRSRSGIYLRLEDEQGQVGYGEIAPLPGWGSETLNADIALCQQLPGHLTPEIMATIPEALPAAQFGFATAWQSVGRLPYRVRPWPICALLGSGQAALEQWQQSWQRGQTTFKWKVGVMSPEEEQAILKALLAALPPGAKLRLDANGSWDRATANRWFAWLDRHGNGKIEYVEQPLPPDQWQALLSLAQTVTTAIALDESVVSAAEVQRWVDRGWPGFFVIKTALFGDPDSLSLLLRRGLEPQRLVFSSALEGAIARTAIFHLLETWQPCHALGFGVDRWRSAPLLTTLTAYERLWERLDQ |  |  |  | Km (purified protein [2]): 78 ± 17 µM; kcat (purified protein [2]): 80 ± 4 s⁻¹; kcat/Km (purified protein [2]): 1e+06 M⁻¹ s⁻¹
5 | T. elongatus OSBS (Thermosynechococcus vestitus BP-1; G295A) (protein) MRWQWRIYEEPLQEPLTTAQGVWRSRSGIYLRLEDEQGQVGYGEIAPLPGWGSETLNADIALCQQLPGHLTPEIMATIPEALPAAQFGFATAWQSVGRLPYRVRPWPICALLGSGQAALEQWQQSWQRGQTTFKWKVGVMSPEEEQAILKALLAALPPGAKLRLDANGSWDRATANRWFAWLDRHGNGKIEYVEQPLPPDQWQALLSLAQTVTTAIALDESVVSAAEVQRWVDRGWPGFFVIKTALFGDPDSLSLLLRRGLEPQRLVFSSALEGAIARTAIFHLLETWQPCHALAFGVDRWRSAPLLTTLTAYERLWERLDQ |  |  |  | Km (purified protein [2]): 304 ± 82 µM; kcat (purified protein [2]): 4 ± 0.4 s⁻¹; kcat/Km (purified protein [2]): 13000 M⁻¹ s⁻¹
6 | T. fusca OSBS (Thermobifida fusca YX; N71A) (protein) MTGRAFAIPLRTRFRGITVREGMLVRGAAGWGEFSPFAEYGPRECARWWAACYEAAELGWPAPVRDTVPVAATVPAVGPEEAARIVASSGCTTAKVKVAERGQSEANDVARVEAVRDALGPRGRVRIDVNGAWDVDTAVRMIRLLDRFELEYVEQPCATVDELAEVRRRVSVPIAADESIRRAEDPLRVRDAEAADVVVLKVQPLGGVRAALRLAEECGLPVVVSSAVETSVGLAAGVALAAALPELPYACGLATLRLLHADVCDDPLLPVHGVLPVRRVDVSEQRLAEVEIDPAAWQARLAAARAAWEQVEREPGP | 322 ± 56 | 10 ± 0.7 | 31000 | 
7 | T. fusca OSBS (Thermobifida fusca YX; G252A) (protein) MTGRAFAIPLRTRFRGITVREGMLVRGAAGWGEFSPFAEYGPRECARWWAACYEAAELGWPAPVRDTVPVNATVPAVGPEEAARIVASSGCTTAKVKVAERGQSEANDVARVEAVRDALGPRGRVRIDVNGAWDVDTAVRMIRLLDRFELEYVEQPCATVDELAEVRRRVSVPIAADESIRRAEDPLRVRDAEAADVVVLKVQPLGGVRAALRLAEECGLPVVVSSAVETSVGLAAGVALAAALPELPYACALATLRLLHADVCDDPLLPVHGVLPVRRVDVSEQRLAEVEIDPAAWQARLAAARAAWEQVEREPGP | 86 ± 6 | 16 ± 0.3 | 190000 | 
8 | T. fusca OSBS (Thermobifida fusca YX) (protein) MTGRAFAIPLRTRFRGITVREGMLVRGAAGWGEFSPFAEYGPRECARWWAACYEAAELGWPAPVRDTVPVNATVPAVGPEEAARIVASSGCTTAKVKVAERGQSEANDVARVEAVRDALGPRGRVRIDVNGAWDVDTAVRMIRLLDRFELEYVEQPCATVDELAEVRRRVSVPIAADESIRRAEDPLRVRDAEAADVVVLKVQPLGGVRAALRLAEECGLPVVVSSAVETSVGLAAGVALAAALPELPYACGLATLRLLHADVCDDPLLPVHGVLPVRRVDVSEQRLAEVEIDPAAWQARLAAARAAWEQVEREPGP | 182 ± 22 | 122 ± 4.6 | 670000 | 
9 | T. fusca OSBS (Thermobifida fusca YX; R15A) (protein) MTGRAFAIPLRTRFAGITVREGMLVRGAAGWGEFSPFAEYGPRECARWWAACYEAAELGWPAPVRDTVPVNATVPAVGPEEAARIVASSGCTTAKVKVAERGQSEANDVARVEAVRDALGPRGRVRIDVNGAWDVDTAVRMIRLLDRFELEYVEQPCATVDELAEVRRRVSVPIAADESIRRAEDPLRVRDAEAADVVVLKVQPLGGVRAALRLAEECGLPVVVSSAVETSVGLAAGVALAAALPELPYACGLATLRLLHADVCDDPLLPVHGVLPVRRVDVSEQRLAEVEIDPAAWQARLAAARAAWEQVEREPGP | 7 ± 1.4 | 0.6 ± 0.02 | 86000 | 
10 | T. fusca OSBS (Thermobifida fusca YX; R126M) (protein) MTGRAFAIPLRTRFRGITVREGMLVRGAAGWGEFSPFAEYGPRECARWWAACYEAAELGWPAPVRDTVPVNATVPAVGPEEAARIVASSGCTTAKVKVAERGQSEANDVARVEAVRDALGPRGRVMIDVNGAWDVDTAVRMIRLLDRFELEYVEQPCATVDELAEVRRRVSVPIAADESIRRAEDPLRVRDAEAADVVVLKVQPLGGVRAALRLAEECGLPVVVSSAVETSVGLAAGVALAAALPELPYACGLATLRLLHADVCDDPLLPVHGVLPVRRVDVSEQRLAEVEIDPAAWQARLAAARAAWEQVEREPGP | 470 ± 42 | 104 ± 4 | 220000 | 
11 | T. fusca OSBS (Thermobifida fusca YX; F37A) (protein) MTGRAFAIPLRTRFRGITVREGMLVRGAAGWGEFSPAAEYGPRECARWWAACYEAAELGWPAPVRDTVPVNATVPAVGPEEAARIVASSGCTTAKVKVAERGQSEANDVARVEAVRDALGPRGRVRIDVNGAWDVDTAVRMIRLLDRFELEYVEQPCATVDELAEVRRRVSVPIAADESIRRAEDPLRVRDAEAADVVVLKVQPLGGVRAALRLAEECGLPVVVSSAVETSVGLAAGVALAAALPELPYACGLATLRLLHADVCDDPLLPVHGVLPVRRVDVSEQRLAEVEIDPAAWQARLAAARAAWEQVEREPGP | 666 ± 151 | 163 ± 19 | 250000 | 
12 | T. fusca OSBS (Thermobifida fusca YX; G252T) (protein) MTGRAFAIPLRTRFRGITVREGMLVRGAAGWGEFSPFAEYGPRECARWWAACYEAAELGWPAPVRDTVPVNATVPAVGPEEAARIVASSGCTTAKVKVAERGQSEANDVARVEAVRDALGPRGRVRIDVNGAWDVDTAVRMIRLLDRFELEYVEQPCATVDELAEVRRRVSVPIAADESIRRAEDPLRVRDAEAADVVVLKVQPLGGVRAALRLAEECGLPVVVSSAVETSVGLAAGVALAAALPELPYACTLATLRLLHADVCDDPLLPVHGVLPVRRVDVSEQRLAEVEIDPAAWQARLAAARAAWEQVEREPGP | 668 ± 72 | 13 ± 0.7 | 19000 | 
